Here are results for one molecule from publication PMC12432402 (2025).

Ends that are not written are not given here. * marks the point of attachment. FITC = O=C1OC2(c3ccc(O)cc3Oc3cc(O)ccc32)c2ccc(NC(=S)*)cc21

This experiment addresses ALFA‐tag binder 4A.

The term Kd denotes the free concentration of one partner at which half of the binding sites on the other are occupied at equilibrium, for simple one-to-one binding. A high value points to a looser complex. In the case of {FITC}-SRLEEELRRRLTE [N‐terminally FITC‐labeled ALFA‐tag], binding was characterised by a dissociation constant (Kd) of 222 µM.
